Results taken from the supplement of paper PMC10567573.

B1: P2RY14 (parent)
chain: KLLSVIVWMLMLLLAVPNIILTNQ
B2: ANKRD40 (parent)
chain: YQELLRVCCCELGVNPDQVEKIRK

Variants of: B1
Test: protein stability index of a GFP-peptide fusion (GPS, HEK-293T) (PSI 1-6); higher = more stable
Conditions: c terminus: a fixed tail appended
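Further: lentivirally expressed fusions sorted by FACS into six bins by GFP to DsRed ratio, PSI derived from sequencing read proportions per bin multiplied by bin number.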

| Variant | protein stability index |
| --- | --- |
| V7E | 2.65 |
| V7F | 2.12 |
| V7D | 3.57 |
| V7A | 2.07 |
| S4V | 3.9 |
| S4T | 2.53 |
| S4F | 2.98 |
| S4P | 3.34 |
| S4H | 3.18 |
| S4K | 5.66 |
| S4G | 2.85 |
| S4Y | 2.82 |
| S4W | 4.74 |
| S4I | 2.44 |
| S4N | 2.81 |
| S4Q | 2.56 |
| S4R | 2.78 |
| I6A | 2.45 |
| I6L | 4.14 |
| I6V | 4.09 |
| I6G | 2.2 |
| I6D | 2.02 |
| I6S | 2.39 |
| I6M | 3.13 |
| I6W | 2.02 |
| I6P | 1.89 |
| I6F | 2.8 |

| Variant | protein stability index |
| --- | --- |
| I6R | 2.43 |
| I6T | 2.48 |
| I6N | 3.01 |
| V5D | 3.22 |
| V5Y | 2.63 |
| V5P | 2.54 |
| V5K | 2.52 |
| V5T | 3.51 |
| V5W | 2.74 |
| V5I | 3.93 |
| V5L | 2.11 |
| V5S | 3.98 |
| V5G | 4.02 |
| V5N | 2.29 |
| V5A | 3.26 |
| V5M | 1.71 |
| V5Q | 2.35 |
| V5R | 2.79 |
| V5F | 2.09 |
| V5E | 2.42 |
| V5H | 3.85 |
| L2F | 2.29 |
| L2K | 2.76 |
| L2C | 3.88 |
| L2I | 3.46 |
| L2G | 2.21 |
| L2P | 3.19 |

| Variant | protein stability index |
| --- | --- |
| L2D | 2.67 |
| L2N | 1.89 |
| L3A | 2.27 |
| L3E | 2.78 |
| L3S | 2.35 |
| L3N | 4.61 |
| L3F | 3.42 |
| L3W | 3.69 |
| L3M | 1.64 |
| L3I | 1.73 |
| L3T | 2.93 |
| L3H | 1.3 |
| L3Y | 2.55 |
| L3K | 3.61 |
| K1H | 4.35 |
| K1I | 2.53 |
| K1P | 2.13 |
| K1W | 1.35 |
| K1G | 2.55 |
| K1D | 1.48 |
| K1Y | 3.13 |
| K1F | 3.58 |
| K1L | 3.3 |
| K1Q | 4.07 |
| K1R | 2.35 |

Variants of: B2
Test: as above
Conditions: c terminus: a fixed tail appended

| Variant | protein stability index |
| --- | --- |
| L4Y | 2.38 |
| L4E | 3.05 |
| L4S | 2.27 |
| L4H | 3 |
| L4N | 2.55 |
| L4A | 2.63 |
| L4K | 2.94 |
| L4I | 2.58 |
| L4Q | 2.42 |
| L4M | 1.82 |
| L5Q | 3.04 |
| L5C | 3.06 |
| L5H | 2.18 |
| L5D | 3.26 |
| L5P | 1.75 |
| L5I | 1.77 |
| L5T | 1.91 |
| C9R | 2.31 |
| C9A | 2.61 |
| C9E | 2.35 |
| C9G | 3.22 |
| C9L | 1.55 |
| C9Q | 2.27 |
| C9I | 1.06 |
| C9T | 2.23 |
| C9S | 2.14 |

| Variant | protein stability index |
| --- | --- |
| C9Y | 2.66 |
| C9V | 1.82 |
| C9N | 2.15 |
| C9K | 2.23 |
| C9F | 3.38 |
| C9W | 2.23 |
| C9M | 1.81 |
| C9P | 2.59 |
| P16I | 1.52 |
| P16M | 1.5 |
| P16K | 2.26 |
| P16D | 2.86 |
| P16N | 2.4 |
| P16L | 2.11 |
| P16Y | 1.99 |
| P16T | 1.29 |
| P16F | 1.14 |
| Q2Y | 1.86 |
| Q2R | 2.58 |
| Q2E | 2.98 |
| Q2G | 2.08 |
| Q2P | 2.08 |
| Q2W | 1.67 |
| Q2L | 1.51 |
| Q2D | 2.47 |
| Q2H | 1.77 |

| Variant | protein stability index |
| --- | --- |
| Q2I | 1.73 |
| I22L | 1.93 |
| I22C | 2.13 |
| I22R | 1.88 |
| I22Q | 2.99 |
| I22W | 1.54 |
| I22Y | 2.57 |
| I22A | 2.02 |
| I22H | 2.69 |
| I22M | 1.63 |
| I22K | 2.43 |
| I22N | 3.16 |
| G13K | 1.62 |
| G13M | 2.01 |
| G13R | 1.66 |
| G13A | 2.08 |
| G13T | 2.13 |
| G13D | 2.19 |
| G13V | 1.71 |
| G13N | 1.78 |
| G13Y | 1.05 |
| G13H | 1.79 |
| G13Q | 1.57 |
| G13W | 2.84 |
| G13I | 1.78 |
| G13C | 1.63 |

| Variant | protein stability index |
| --- | --- |
| L12K | 2.49 |
| L12Q | 2.81 |
| L12V | 1.64 |
| L12F | 2.21 |
| L12A | 1.78 |
| L12I | 2.21 |
| L12E | 2.75 |
| L12H | 1.88 |
| L12C | 2.03 |
| L12D | 2.64 |
| L12S | 2.15 |
| V19Y | 2.26 |
| V19I | 2.25 |
| V19C | 2.1 |
| V19F | 2.19 |
| V19W | 1.75 |
| V19H | 2.27 |
| V19A | 1.79 |
| V19D | 1.66 |
| V19L | 2.2 |
| V19Q | 2.29 |
| R6I | 1.49 |
| R6Q | 2.26 |
| R6L | 1.74 |
| R6G | 2.23 |
| R6M | 1.73 |

| Variant | protein stability index |
| --- | --- |
| R6E | 2.36 |
| R6T | 1.54 |
| R6K | 1.91 |
| R6F | 1.78 |
| R6N | 2.26 |
| R6Y | 2.18 |
| R6S | 2.03 |
| R6A | 2.02 |
| C10Q | 2.92 |
| C10S | 2.24 |
| C10G | 2.22 |
| C10L | 1.86 |
| C10F | 1.68 |
| K24P | 1.35 |
| K24D | 2.13 |
| K24W | 1.27 |
| K24N | 1.61 |
| K24E | 1.62 |
| K24I | 1.6 |
| K24F | 3.37 |
| E11K | 2.89 |
| E11M | 2.03 |
| E11G | 1.86 |
| E11C | 2.62 |
| E11F | 2.19 |
| E11V | 1.56 |

| Variant | protein stability index |
| --- | --- |
| E11R | 1.32 |
| E11W | 1 |
| E11N | 1.76 |
| E11S | 1.22 |
| E11A | 1.32 |
| E11P | 1.94 |
| E11Y | 1.27 |
| V14R | 1.5 |
| V14A | 1.99 |
| V14Q | 1.72 |
| V14H | 2.22 |
| V14L | 2.18 |
| V14P | 2.02 |
| V14I | 1.61 |
| V14T | 1.99 |
| V14M | 2.07 |
| V14F | 2.27 |
| V14E | 2.72 |
| V14C | 2.08 |
| N15P | 2.8 |
| N15I | 1.37 |
| N15F | 1.45 |
| N15C | 1.63 |
| N15S | 2.1 |
| N15Q | 1.62 |
| N15H | 2.75 |

| Variant | protein stability index |
| --- | --- |
| N15L | 1.39 |
| N15E | 2.27 |
| N15M | 2.21 |
| V7Y | 1.79 |
| V7G | 1.48 |
| V7E | 2.28 |
| V7C | 2.1 |
| V7L | 1.46 |
| V7D | 2.53 |
| V7R | 1.41 |
| V7F | 1.61 |
| V7Q | 1.97 |
| V7I | 2.03 |
| E20K | 1.96 |
| E20A | 1.97 |
| E20M | 1.85 |
| E20S | 1.31 |
| E20D | 2.94 |
| E20I | 3.43 |
| E20H | 1.26 |
| E20V | 1.99 |
| E20C | 1.56 |
| E20L | 2.4 |
| Q18Y | 1.19 |
| Q18A | 1.32 |
| Q18L | 1.67 |

| Variant | protein stability index |
| --- | --- |
| Q18D | 2.73 |
| Q18F | 1.01 |
| Q18T | 2.16 |
| Q18V | 1.8 |
| Q18C | 1.52 |
| Q18H | 1.48 |
| Q18S | 2.08 |
| C8H | 2.84 |
| C8F | 1.44 |
| C8S | 3.33 |
| C8E | 3.56 |
| C8I | 2.38 |
| C8W | 2.02 |
| C8A | 3.16 |
| C8P | 2.12 |
| C8R | 2.21 |
| C8L | 2.24 |
| C8D | 3.81 |
| C8Q | 3.52 |
| D17N | 2.11 |
| D17M | 1.56 |
| D17T | 2.42 |
| D17L | 1.59 |
| D17Y | 2.01 |
| D17G | 2.42 |
| D17V | 2.73 |

| Variant | protein stability index |
| --- | --- |
| D17S | 2.4 |
| D17F | 1.87 |
| D17R | 2.04 |
| D17C | 2.01 |
| E3R | 1.21 |
| E3A | 1.52 |
| E3K | 1.96 |
| E3N | 2.09 |
| E3S | 2.26 |
| E3H | 2.01 |
| E3T | 2.13 |
| E3Y | 1.66 |
| Y1S | 2.65 |
| Y1T | 2.53 |
| Y1V | 1.15 |
| Y1L | 1.51 |
| Y1A | 2.96 |
| Y1H | 3.27 |
| Y1F | 1.99 |
| Y1R | 2.16 |
| Y1D | 3.49 |
| Y1W | 1.29 |
| Y1P | 1.6 |
| Y1E | 3.69 |
| Y1K | 1.96 |
| Y1M | 2.29 |

| Variant | protein stability index |
| --- | --- |
| R23L | 1.98 |
| R23Q | 1.4 |
| R23E | 1.6 |
| R23D | 2.04 |
| R23V | 2.9 |
| R23Y | 1.8 |
| R23T | 2.08 |
| R23I | 1.8 |
| R23S | 1.72 |
| R23P | 1.57 |
| R23M | 2.02 |
| R23H | 1.84 |
| K21D | 1.66 |
| K21G | 1.82 |
| K21H | 1.49 |
| K21C | 1.82 |
| K21V | 2.54 |
| K21R | 2.12 |
| K21F | 2.97 |
| K21L | 1.05 |
| K21A | 2.02 |
